Experiment [1] addresses human metapneumovirus (HMPV) F protein on GFP-expressing hMPV (NL/1/00, A1 sublineage) (human metapneumovirus). Briefly: cell-based or functional assay.
For experiment [2], the target named is RSV F protein of subtype A (strain A2) on recombinant mKate-RSV (Respiratory syncytial virus subtype A (strain A2)) (UniProt P03420). Briefly: cell-based or functional assay.
Chain of RSV F protein of subtype A (strain A2) on recombinant mKate-RSV (Respiratory syncytial virus subtype A (strain A2)) (P03420 26-574): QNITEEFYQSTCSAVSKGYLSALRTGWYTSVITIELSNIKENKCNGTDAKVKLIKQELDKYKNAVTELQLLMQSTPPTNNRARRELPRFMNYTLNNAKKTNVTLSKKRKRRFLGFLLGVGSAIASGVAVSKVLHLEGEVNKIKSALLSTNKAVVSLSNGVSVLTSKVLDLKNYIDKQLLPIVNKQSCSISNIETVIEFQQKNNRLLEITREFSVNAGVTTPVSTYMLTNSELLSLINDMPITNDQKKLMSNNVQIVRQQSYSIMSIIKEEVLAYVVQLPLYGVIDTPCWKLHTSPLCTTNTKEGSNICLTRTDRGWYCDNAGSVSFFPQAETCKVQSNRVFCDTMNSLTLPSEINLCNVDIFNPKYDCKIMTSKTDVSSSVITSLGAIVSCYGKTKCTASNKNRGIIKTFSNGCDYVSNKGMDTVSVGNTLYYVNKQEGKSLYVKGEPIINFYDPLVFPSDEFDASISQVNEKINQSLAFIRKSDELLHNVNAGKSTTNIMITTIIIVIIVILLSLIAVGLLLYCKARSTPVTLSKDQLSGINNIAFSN

On to MPE8 (antibody), for which the HMPV-A1 IC50 in experiment [1] came to 0.07 µg/mL. The RSV-A2 IC50 in experiment [2] was 0.04 µg/mL.

For the origin of these results see patent US20250313612A1.
